Results taken from paper PMC9709061.

Target: HSP90–CDC37–BRAF^V600E complex (human) (UniProt P08238)
Assay: cryo-EM structure; HSP90–CDC37–BRAF^V600E complex incubated with PP5 D274N, purified by SEC, cross-linked with 1 mM BS3; one sample gave three classes: HCK (3.4 Å), HCK-P open (4.2 Å), HCK-P closed (3.9 Å); PP5 modelled by rigid-body docking

Chain of HSP90–CDC37–BRAF^V600E complex (human) (P08238 whole entry, chain 1 of 3): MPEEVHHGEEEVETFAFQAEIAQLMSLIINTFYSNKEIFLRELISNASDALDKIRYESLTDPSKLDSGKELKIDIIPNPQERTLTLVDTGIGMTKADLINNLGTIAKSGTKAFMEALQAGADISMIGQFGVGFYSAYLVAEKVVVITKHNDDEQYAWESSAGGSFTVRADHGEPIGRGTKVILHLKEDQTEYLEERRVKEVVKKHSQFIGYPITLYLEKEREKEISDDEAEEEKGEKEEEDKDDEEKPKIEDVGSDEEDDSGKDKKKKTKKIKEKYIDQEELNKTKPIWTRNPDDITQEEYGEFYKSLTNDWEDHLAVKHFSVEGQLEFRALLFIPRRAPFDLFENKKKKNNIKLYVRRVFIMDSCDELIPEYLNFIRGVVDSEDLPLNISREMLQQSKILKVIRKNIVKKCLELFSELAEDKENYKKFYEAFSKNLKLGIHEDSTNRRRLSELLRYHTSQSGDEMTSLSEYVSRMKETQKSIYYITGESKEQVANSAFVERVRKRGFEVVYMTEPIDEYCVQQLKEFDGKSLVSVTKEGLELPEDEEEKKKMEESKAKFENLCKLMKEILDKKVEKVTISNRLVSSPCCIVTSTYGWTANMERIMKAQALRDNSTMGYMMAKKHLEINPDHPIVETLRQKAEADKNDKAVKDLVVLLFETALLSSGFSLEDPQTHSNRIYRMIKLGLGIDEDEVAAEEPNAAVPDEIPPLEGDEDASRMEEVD
Chain of HSP90–CDC37–BRAF^V600E complex (human) (Q16543 whole entry, chain 2 of 3, further chain): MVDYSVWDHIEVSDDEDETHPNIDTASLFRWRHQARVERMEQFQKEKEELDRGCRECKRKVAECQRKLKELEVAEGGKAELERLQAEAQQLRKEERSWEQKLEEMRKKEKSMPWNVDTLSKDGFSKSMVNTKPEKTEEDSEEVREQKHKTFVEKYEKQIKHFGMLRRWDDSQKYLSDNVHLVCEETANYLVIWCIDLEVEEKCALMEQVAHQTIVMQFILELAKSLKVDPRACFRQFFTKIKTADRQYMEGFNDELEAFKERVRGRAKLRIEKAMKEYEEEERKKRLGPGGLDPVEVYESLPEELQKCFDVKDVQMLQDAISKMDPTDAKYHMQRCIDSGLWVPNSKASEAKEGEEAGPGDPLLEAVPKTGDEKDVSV
Chain of HSP90–CDC37–BRAF^V600E complex (human) (P15056 whole entry V600E, chain 3 of 3, further chain): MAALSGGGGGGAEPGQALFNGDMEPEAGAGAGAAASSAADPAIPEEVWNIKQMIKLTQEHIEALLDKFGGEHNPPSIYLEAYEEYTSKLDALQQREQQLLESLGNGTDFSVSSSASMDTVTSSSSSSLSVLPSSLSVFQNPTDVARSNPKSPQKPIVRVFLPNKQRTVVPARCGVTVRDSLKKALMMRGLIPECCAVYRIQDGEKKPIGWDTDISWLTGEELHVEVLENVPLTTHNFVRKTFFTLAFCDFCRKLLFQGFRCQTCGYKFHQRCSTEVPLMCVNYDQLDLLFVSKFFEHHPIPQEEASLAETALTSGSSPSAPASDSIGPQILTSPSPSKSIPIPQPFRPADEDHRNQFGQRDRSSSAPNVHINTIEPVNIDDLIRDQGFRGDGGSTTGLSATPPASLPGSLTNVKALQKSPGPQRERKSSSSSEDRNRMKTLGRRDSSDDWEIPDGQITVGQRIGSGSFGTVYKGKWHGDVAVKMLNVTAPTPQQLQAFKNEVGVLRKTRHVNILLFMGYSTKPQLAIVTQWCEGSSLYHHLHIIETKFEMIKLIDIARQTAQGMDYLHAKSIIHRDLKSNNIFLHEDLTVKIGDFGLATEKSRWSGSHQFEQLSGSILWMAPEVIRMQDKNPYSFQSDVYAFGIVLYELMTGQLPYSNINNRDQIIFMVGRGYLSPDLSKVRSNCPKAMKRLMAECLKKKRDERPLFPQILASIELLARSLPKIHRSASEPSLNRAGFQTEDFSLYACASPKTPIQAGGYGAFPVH

B1: PP5 D274N (enzyme)
chain: RDEPPADGALKRAEELKTQANDYFKAKDYENAIKFYSQAIELNPSNAIYYGNRSLAYLRTECYGYALGDATRAIELDKKYIKGYYRRAASNMALGKFRAALRDYETVVKVKPHDKDAKMKYQECNKIVKQKAFERAIAGDEHKRSVVDSLDIESMTIEDEYSGPKLEDGKVTISFMKELMQWYKDQKKLHRKCAYQILVQVKEVLSKLSTLVETTLKETEKITVCGDTHGQFYDLLNIFELNGLPSETNPYIFNGDFVNRGSFSVEVILTLFGFKLLYPDHFHLLRGNHETDNMNQIYGFEGEVKAKYTAQMYELFSEVFEWLPLAQCINGKVLIMHGGLFSEDGVTLDDIRKIERNRQPPDSGPMCDLLWSDPQPQNGRSISKRGVSCQFGPDVTKAFLEENNLDYIIRSHEVKAEGYEVAHGGRCVTVFSAPNYCDQMGNKASYIHLQGSDLRPQFHQFTAVPHPNVKPMAYANTLLQLGMM
stoichiometry N: 1
